Among the data in PMC10014274 are stoichiometry N values, retold here.

As usually defined, the stoichiometry N is the number of molecules, sites or subunits per partner or assembly.

The target of this assay is VNp-mNeongreen-TEV-etanercept-His6 fusion protein (human). The experiment in a line: SDS-PAGE without reducing agent and anti-mNeongreen western blot; VNp-mNG-etanercept purified from E. coli, without DTT. A general note: In western blotting, separated proteins are transferred to a membrane and probed.

Turning to “VNp-mNeongreen-TEV-etanercept-His6 fusion protein (Fc fusion)”, the stoichiometry N is 2.
